This is an account of results in patent US12616648B2, “Cosmetic composition” (GIVAUDAN SA, priority 2018, dated 2026).

For this experiment, the system named is Normal Human Keratinocytes (NHEKs). Kind of experiment: NHEK scratch assay (wound healing). The class given is cell-based. As to conditions: HB-EGF 1 ng/ml (positive control), overnight pre-incubation, 8 h after scratch. On the procedure: Normal Human Keratinocytes (NHEKs) were seeded at 200′000 cells per well pre-coated with Type I collagen in 12-wells culture plates in the presence of keratinocyte growth medium (KGM, Lonza) supplemented with growth factors such as hydrocortisone, transferrin, epinephrine, bovine pituitary extract (BPE), recombinant human epidermal growth factor (rhEGF) and insulin. At confluence, cells were pre-incubated with the Patchouli stem extract of Example 1 at a concentration of 0.5% (v/v) or heparin-binding epidermal growth factor (HB-EGF) at 1 ng/ml (positive control) overnight in keratinocyte basal medium without supplement. After this pre-conditioning phase, the cell monolayer sticking to the bottom of the well was scratched with a P200 sterile cone, followed by two washes with phosphate buffered saline (PBS). The NHEK were then again stimulated with Patchouli extract at 0.5% or HB-EGF at 1 ng/ml for 8 h in basal medium.
The wound healing process was analyzed by pictures recording at T0 and T8h using inverting optical microscope (Zeiss). After image analysis, the percentage of scratch closing was determined relative to untreated condition.

B1: HB-EGF: heparin-binding epidermal growth factor, positive control in the scratch assay (protein, UniProt Q99075 63-148, looked up)
Heparin-binding EGF-like …: DLQEADLDLLRVTLSSKPQALATPNKEEHGKRKKKGKGLGKKRDPCLRKYKDFCIHGECKYVKELRAPSCICHPGYHGERCHGLSL
As for B1, the “wound healing (scratch closing relative to untreated condition)” value was “about +60%”.
